For data set [1], the target named is E. coli bo3 oxidase (E. coli). Nature of the data set: mass photometry.
In data set [2] the target is E. coli bo3 oxidase (E. coli). Nature of the data set: SEC-MALS.
The target in data set [3] is T1, Streptomyces lividans potassium channel KcsA (Streptomyces lividans), P0A334.
T1 chain: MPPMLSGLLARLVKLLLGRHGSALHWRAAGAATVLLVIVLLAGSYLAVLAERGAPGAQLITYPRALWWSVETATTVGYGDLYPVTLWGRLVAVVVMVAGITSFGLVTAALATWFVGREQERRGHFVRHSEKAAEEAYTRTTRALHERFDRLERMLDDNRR
Nature of the data set: mass photometry. The following applies: remark: other sources report otherwise.

Data set [4] has as its target T1, Streptomyces lividans potassium channel …. Kind of data set: mass photometry. The following applies: remark: other sources report otherwise.
The data set “mass photometry” concerns the molecule itself. Kind of data set: mass photometry.

On to E. coli bo3 oxidase (complex), for which, in data set [1], the relative abundance of dimers is 20% and the stoichiometry N amounted to 2. In data set [2], this molecule showed a relative abundance of dimers of 28%, a relative abundance of monomers of 72% and a stoichiometry N of 2.

B1: Streptomyces lividans potassium channel KcsA, P0A334 1-160 (natural protein)
chain: T1 chain
As for B1, the stoichiometry N in data set [3] and in data set [4] was 4 each time.

B2: E. coli outer membrane protein F (natural protein)
chain: AEIYNKDGNKVDLYGKAVGLHYFSKGNGENSYGGNGDMTYARLGFKGETQINSDLTGYGQWEYNFQGNNSEGADAQTGNKTRLAFAGLKYADVGSFDYGRNYGVVYDALGYTDMLPEFGGDTAYSDDFFVGRVGGVATYRNSNFFGLVDGLNFAVQYLGKNERDTARRSNGDGVGGSISYEYEGFGIVGAYGAADRTNLQEAQPLGNGKKAEQWATGLKYDANNIYLAANYGETRNATPITNKFTNTSGFANKTQDVLLVAQYQFDFGLRPSIAYTKSKAKDVEGIGDVDLVNYFEVGATYYFNKNMSTYVDYIINQIDSDNKLGVGSDDTVAVGIVYQF
As to B2, the “stoichiometry N” value in “mass photometry” worked out at 3.

For the origin of these results see paper PMC7815066 (Chem, 2021).
